# Laboratory results reported in patent publication US20180237502A1.
# B1: murine monoclonal antibody 21B2 (antibody, V domains shown)
# VH: EVQLQESGAELVRPGASVTLSCKTSGYTFTDYEMHWVKQTPVHGLEWIGAIDPETGGTAYNQKFKGKATLTADKSSSTAYMELSRLTSEDSAVYYCTGNYATDYWGQGTSVTVSS
# VL: DIVMSQSPSSLAVSAGEKVTMSCKSSQSLFNSRSRKNYLAWYQLKPGQSPKLLIYWASTRESGVPDRFTGSGSGTDFTLTISSVQAEDLAVYYCKQSNYLWTFGGGTKLEIKR
# B2: murine monoclonal antibody 2D8 (antibody, V domains shown)
# VH: EVQLQESGGELVRPGTSVKISCKASGYTFTNFWLGWIKERPGHGLEWIGDIYPGGHYTNYNENFKGKATLTADTSSNTAYMQVSSLTSEDSAVYFCFTQYYDMDYWGQGTSVTVSS
# VL: not shown
# B3: murine monoclonal antibody 8C4 (antibody, V domains shown)
# VH: EVQLQESGPELKKPGETVKISCKASGYTFTTYGMSWVKQAPGKGLKWMGRINTYSGVPTYADEFKGRFAFSLENSASTAYLQINNLKNEDTATYFCARGDGGHWFANWGQGTLVTVSA
# VL: DIQMTQSPSSLSASLGGKVTITCKASQDINKNIAWYQHKPGKGPRLLIWYKSALQPGIPSRFSGSGSGRDYSFSISNLEPEDIATYSCLQYDNLPPTFGGGTKLEIKR
# B4: murine monoclonal antibody 16G8 (antibody, V domains shown)
# VH: EVQLQESGPGLVKPGASVKISCKASGYSFTGYYMNWVKQSPEKSLEWIGEINPSTGGTTYNQKFKAKATLTVDKSSSTAYMQLKSLTSEDSAVYYCVRYSHYYGSGSWYFDVWGTGTTVTVSS
# VL: DIQMTQSPASLSASVGETVTITCRASENIYSNLAWYQQKQGKSPQLLVNAATNLADGVPSRFSGSGSGTQFSLKINSLQPEDFGSYYCQHFYVTPYMFGSGTKLEIKR
# B5: murine monoclonal antibody 17C6 (antibody, V domains shown)
# VH: EVQLQESGPGLVQPSQSLSITCTVSGFSLTSYGVHWVRQSPGKGLEWLGVIWSGGSTDYNAAFISRLSISKDNSKSQVFFKMNSLQADDTAIYYCARNWFDYDNYYSMDYWGQGTSVTVSS
# VL: DIQMTQTTSSLSASLGDRVTISCRASQDISNYLNWYQQKPDGTVKLLIYYTSRLHSGVPSRFSGSGSGTDFSLTISNQEPEDIATYYCQQYSNLPWTFGGGTKLEIKR
# Biological target: MARV GPddmuc (Marburg virus (MARV)), P35253
# Conditions: remark: other sources report otherwise
row,Binder,EC50
1,B1,0.0307 µg/mL
2,B2,0.0573 µg/mL

# Biological target: SUDV GPddmuc (Sudan virus (SUDV)), Q66814
# Conditions: remark: other sources report otherwise
row,Binder,EC50
1,B3,0.06 µg/mL
2,B2,> 10 µg/mL
3,B4,0.22 µg/mL
4,B5,0.03 µg/mL

# Biological target: EBOV GPddmuc (Ebola virus (EBOV)), Q05320
# Conditions: remark: other sources report otherwise
row,Binder,EC50
1,B1,> 10 µg/mL
2,B3,0.21 µg/mL
3,B2,26.2 µg/mL
4,B4,1.23 µg/mL
5,B5,0.03 µg/mL
